What all share (test): cell-based or functional assay
In one experiment the target is murine IL-12 (mouse) (UniProt P43431).
Experiment [1] has as its target Cyno IL-12 (cynomolgus monkey).
The target of another experiment is Baboon IL-12 (baboon).
The target in experiment [2] is Rhesus IL-12 (rhesus monkey) (UniProt P48091).
The target of experiment [3] is recombinant human IL-12 (human) (UniProt P29459).
Chain of recombinant human IL-12 (human) (P29459 23-219, chain 1 of 2): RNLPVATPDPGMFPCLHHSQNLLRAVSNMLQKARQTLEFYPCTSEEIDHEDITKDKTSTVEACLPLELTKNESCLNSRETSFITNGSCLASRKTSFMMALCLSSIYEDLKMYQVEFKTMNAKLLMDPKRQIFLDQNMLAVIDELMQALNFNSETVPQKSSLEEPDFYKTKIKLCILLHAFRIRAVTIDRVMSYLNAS
Chain of recombinant human IL-12 (human) (P29460 23-328, chain 2 of 2, further chain): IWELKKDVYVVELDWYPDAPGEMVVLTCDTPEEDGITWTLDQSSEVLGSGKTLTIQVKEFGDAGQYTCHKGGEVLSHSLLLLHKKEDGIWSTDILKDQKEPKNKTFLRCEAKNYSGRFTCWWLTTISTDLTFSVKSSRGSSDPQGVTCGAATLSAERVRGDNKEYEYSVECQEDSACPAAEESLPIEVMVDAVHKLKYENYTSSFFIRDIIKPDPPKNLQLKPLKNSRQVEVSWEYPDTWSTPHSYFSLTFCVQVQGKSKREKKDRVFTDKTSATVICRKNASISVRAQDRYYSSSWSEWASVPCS

Chain of murine IL-12 (mouse) (P43431 23-215, chain 1 of 2): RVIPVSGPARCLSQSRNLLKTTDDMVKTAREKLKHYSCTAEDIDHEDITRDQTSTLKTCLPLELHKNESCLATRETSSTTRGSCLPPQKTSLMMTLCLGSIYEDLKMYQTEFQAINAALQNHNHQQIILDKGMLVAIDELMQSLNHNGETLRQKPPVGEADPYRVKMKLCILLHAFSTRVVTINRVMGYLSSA
Chain of murine IL-12 (mouse) (P43432 23-335, chain 2 of 2, further chain): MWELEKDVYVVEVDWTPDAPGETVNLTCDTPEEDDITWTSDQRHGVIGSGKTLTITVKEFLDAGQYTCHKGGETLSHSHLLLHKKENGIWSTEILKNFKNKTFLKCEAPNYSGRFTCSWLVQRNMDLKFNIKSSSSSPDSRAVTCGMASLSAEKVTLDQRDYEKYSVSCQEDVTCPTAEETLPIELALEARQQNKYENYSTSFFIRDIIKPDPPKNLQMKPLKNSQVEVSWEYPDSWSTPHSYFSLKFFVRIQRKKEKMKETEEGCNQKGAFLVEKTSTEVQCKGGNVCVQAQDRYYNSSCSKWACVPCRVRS
Chain of Rhesus IL-12 (rhesus monkey) (P48091 23-219, chain 1 of 2): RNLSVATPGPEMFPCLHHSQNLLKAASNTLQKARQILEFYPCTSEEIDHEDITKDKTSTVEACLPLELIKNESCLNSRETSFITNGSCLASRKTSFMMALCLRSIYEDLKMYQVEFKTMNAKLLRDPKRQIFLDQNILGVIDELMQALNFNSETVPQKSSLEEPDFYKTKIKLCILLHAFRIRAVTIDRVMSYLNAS
Chain of Rhesus IL-12 (rhesus monkey) (P48095 23-328, chain 2 of 2, further chain): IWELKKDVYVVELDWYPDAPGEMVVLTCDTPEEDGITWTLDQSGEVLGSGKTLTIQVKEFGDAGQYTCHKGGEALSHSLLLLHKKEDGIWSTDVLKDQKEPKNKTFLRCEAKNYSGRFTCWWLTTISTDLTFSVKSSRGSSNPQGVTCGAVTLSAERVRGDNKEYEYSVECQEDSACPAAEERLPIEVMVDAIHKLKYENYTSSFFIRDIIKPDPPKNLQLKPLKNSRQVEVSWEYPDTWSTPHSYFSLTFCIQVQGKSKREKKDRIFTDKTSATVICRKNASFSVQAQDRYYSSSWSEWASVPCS

In the experiment with murine IL-12 (mouse), C17.15 (antibody) came in with an IC50 (M), species cross reactivity bioassay of 3e-11 M and a PHA blast Assay IC50 of 0.014 nM.

On to C8.6.2 (antibody), for which the IC50 (M), species cross reactivity bioassay in experiment [1] was found to be 1.2e-10 M; with Baboon IL-12 (baboon), 2e-10 M; in experiment [2], 1e-10 M; in experiment [3] it was 5e-11 M.
